Source: article PMC4707474, “Identification of a small molecule that simultaneously suppresses virulence and antibiotic resistance of Pseudomonas aeruginosa” (Scientific Reports, 2016)

Legend:
[1] = target: T1, P. aeruginosa DHODase (PyrD, dihydroorotate dehydrogenase) (Pseudomonas aeruginosa, UniProt Q9HZF8); experiment: DCIP-based colorimetric enzyme assay, […] min preincubation, dose-response; type: biochemical
T1 construct: pyrD open reading frame from PAO1 genomic DNA, in pET28a, recombinant Ni-NTA purified

[2] = substrate: O=C1C[C@@H](C(=O)O)NC(=O)N1; experiment: steady-state enzyme kinetics (Km), DCIP colorimetric assay; type: biochemical, Pseudomonas aeruginosa; details: FMN
[3] = substrate: COC1=C(OC)C(=O)C(C)=CC1=O; experiment: steady-state enzyme kinetics (Km) as electron acceptor, DCIP colorimetric assay; type: biochemical, Pseudomonas aeruginosa; details: FMN

Molecule | IC50 [1] [µM] | Km [2] [µM] | Km [3] [µM]
C[C@@H](NC(=O)CSc1nnnn1-c1ccc(O)cc1)c1ccc(-c2ccccc2)cc1 [compound 14] | 41 |  | 
P. aeruginosa DHODase (PyrD, dihydroorotate dehydrogenase) (Pseudomonas aeruginosa PAO1) (protein, pyrD open reading frame from PAO1 genomic DNA, in pET28a, recombinant Ni-NTA purified) MYTLARQLLFKLSPETSHELSIDLIGAGGRLGLNRLLTPKPASLPVSVLGLEFPNPVGLAAGLDKNGDAIDGFGQLGFGFIEIGTVTPRPQPGNPRPRLFRLPQANAIINRMGFNNHGVDHLLARVRAAKYRGVLGINIGKNFDTPVERAVDDYLICLDKVYADASYVTVNVSSPNTPGLRSLQFGDSLKQLLEALRQRQEALALRHGRRVPLAIKIAPDMTDEETALVAAALVEAGMDAVIATNTTLGREGVEGLPHGDEAGGLSGAPVREKSTHTVKVLAGELGGRLPIIAAGGITEGAHAAEKIAAGASLVQIYSGFIYKGPALIREAVDAIAALPRRN |  | 60.8 | 25.6
